According to patent US20200157194A1 (Regeneron, published 2020):

T1: recombinant human GREM1 (hGREM1-His; C-terminal 10His tagged, R&D, #5190-GR) (human, UniProt O60565 25-184, limits assumed)
T1 sequence: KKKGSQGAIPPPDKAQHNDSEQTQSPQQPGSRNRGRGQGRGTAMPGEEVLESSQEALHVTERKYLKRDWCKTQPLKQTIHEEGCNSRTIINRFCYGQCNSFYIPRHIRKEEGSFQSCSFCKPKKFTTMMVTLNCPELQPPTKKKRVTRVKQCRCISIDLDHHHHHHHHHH

T2: human GREM1 (hGREM1-His; SEQ ID NO: 595) (human, UniProt O60565 25-184)
T2 construct: also called biotin-hGREM1-His; recombinant human GREM1 protein
T2 sequence: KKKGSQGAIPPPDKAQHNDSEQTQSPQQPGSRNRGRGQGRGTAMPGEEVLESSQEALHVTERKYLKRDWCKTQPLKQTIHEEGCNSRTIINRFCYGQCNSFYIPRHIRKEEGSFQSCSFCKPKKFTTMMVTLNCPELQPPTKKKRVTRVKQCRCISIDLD


Assays:
[1] = target: T1, recombinant human GREM1 (hGREM1-His; …); assay: cell-based or functional assay
[2] = target: T1, recombinant human GREM1 (hGREM1-His; …); assay: cell-based or functional assay; remark: listed apart in the source
[3] = target: T1, recombinant human GREM1 (hGREM1-His; …); assay: BLI Octet, mAb captured, 100 nM GREM1;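 note: octet Red96 biolayer interferometry at 25 °C in pH 7.4 HEPES saline buffer, antibodies held on anti-human IgG Fc capture biosensors, then exposed to GREM1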
Description: (§1) Binding measurements were conducted using an Octet Red96 label-free biomolecular interaction instrument (ForteBio). All experiments were performed at 25° C. using plate agitation at 1000 rpm. Solutions were made in an aqueous buffer containing 10 mM HEPES, 150 mM NaCl, 3 mM EDTA 0.05% P20, 0.1 mg/mL BSA and adjusted to pH of 7.4 (HBST buffer).
(§2) Anti-Human IgG Fc Capture biosensors (ForteBio) were separately loaded with 50 μg/mL solutions of 24 different anti-GREM1 antibodies for 60 seconds. Following a 30 second wash, duplicate biosensors for each antibody were submerged into wells containing either 100 nM GREM1 solutions or 100 nM GREM1 solutions containing 5 μM of heparin, measuring association for 300 seconds.

[4] = target: T1, recombinant human GREM1 (hGREM1-His; …); assay: BLI Octet, mAb captured, 100 nM GREM1 + 5 uM heparin;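 note: octet Red96 biolayer interferometry at 25 °C, antibodies captured on anti-human IgG Fc biosensors, pH 7.4 HEPES buffer with 0.1 mg/mL BSA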
Description: as §1, §2

[5] = target: T2, human GREM1 (hGREM1-His; SEQ ID NO: 595); assay: SPR, Biacore T200, 25 C, mAb captured, hGREM1-His injected;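 note: Heparin-supplemented HBS-EP+ used as running buffer, association and dissociation phases followed, Kd computed as koff divided by kon and half-life derived from koff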
Description: (§3) Kinetic experiments were carried out using HBS-EP+heparin [10 mM HEPES, 150 mM NaCl, 3 mM EDTA, 0.05% (v/v) surfactant P20, 10 μg/ml heparin sodium salt, pH 7.4] as both the running buffer and the sample buffer. […] Antigen-antibody association was monitored for 150 seconds while dissociation in buffer was monitored for 420 seconds. Kinetic analysis was performed using Scrubber software version 2.0a or Biacore T200 evaluation software v1.0 to determine kₐ and kd values. KD and t_{1/2} were then calculated from the experimentally determined kₐ and kd values as KD=kd/kₐ and t_{1/2}=In(2)/kd.

[6] = target: T2, human GREM1 (hGREM1-His; SEQ ID NO: 595); assay: SPR, Biacore T200, 37 C, mAb captured, hGREM1-His injected;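 note: HBS-EP running buffer containing heparin, association and dissociation phases tracked, KD computed as koff over kon and half-life derived from koff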
Description: as §3

[7] = target: T1, recombinant human GREM1 (hGREM1-His; …); assay: BLI Octet, mAb captured, 100 nM GREM1 without vs with 5 uM heparin;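 note: octet Red96 biolayer interferometry at 25 °C, antibodies captured on anti-human IgG Fc biosensors, association of GREM1 measured with versus without heparin in HEPES-buffered saline, pH 7.4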
Description: as §1, §2

[8] = target: T2, human GREM1 (hGREM1-His; SEQ ID NO: 595); assay: competition ELISA, biotin-hGREM1-His (100 pM) binding to coated hBMP4
Description: Data were analyzed using a sigmoidal dose-response model within Prism™ software. […] The absorbance values of the wells containing the highest concentration for each antibody were used to determine the percent maximum blocking.

Row | Binder | IC50 [M], inhibition of hGREM1-His, W-20-17/BRE-luc luciferase (100 pM hBMP4, 10 nM hGREM1-His) [1] | hGREM1-His Inhibition IC50, M; W-20-17 cell differentiation assay (alkaline phosphatase) [2] | Binding Signal with 30 sec Association [3] | Binding Signal with 300 sec Association [3] | Binding Signal with 30 sec Association [4] | Binding Signal with 300 sec Association [4] | Kd [5] | koff [5] | kon [5] | t1/2 [5] | Kd [6] | koff [6] | kon [6] | t1/2 [6] | Reduction in Signal from Heparin at 30 sec [7] | Reduction in Signal from Heparin at 300 sec [7] | % blocked at maximum Ab tested (20 nM) [8] | IC50 [8]
1 | H4H2897N (antibody, human IgG4, V domains shown, H4H prefix = human IgG4 Fc) VH: QVQLVESGGGVVQPGRSLRLSCAASGFTFTNYGMHWVRQAPGKGLEWVAAISYDGTNKYYADSVKGRFTISRDDSKNTLCLQMNSLRAEDTAVYYCAKEGTGEGFSFDYWGQGTLVTVSS VL: not shown | 4.5e-10 M | 18 nM | 0.2 nm | 0.68 nm | 0.01 nm | 0.26 nm | 148 nM | 0.00041 s⁻¹ | 2770 M⁻¹ s⁻¹ | 28 min | 28.8 nM | 0.00202 s⁻¹ | 70300 M⁻¹ s⁻¹ | 6 min | 0.19 nm | 0.42 nm | 73% | 0.042 nM
2 | H4H2926N (antibody, human IgG4, V domains shown, H4H prefix = human IgG4 Fc) VH: EVQLVESGGGLVQTGRSLRLSCAASGFTFDDYAMNWVRQAPGKGLEWVSGISWNSGNIGYADSVKGRFTISRDNAKNSLYLQMNSLRAEDTALYYCVKYIGQQLVQDYFDYWGQGTLVTVSS VL: DIQMTQSPSSLSASVGDRVTITCQASQDITNYLNWYQQRPGKAPKLLIYDAFNLERGVPSRFSGSGYGTYFTFTISSLQPEDIAIYYCQQYDNLPLTFGGGTKVEIE | 1.2e-09 M | 13 nM | 0.23 nm | 0.49 nm | 0.07 nm | 0.42 nm | 5.52 nM | 0.000502 s⁻¹ | 91000 M⁻¹ s⁻¹ | 23 min | 11.1 nM | 0.0014 s⁻¹ | 126000 M⁻¹ s⁻¹ | 8 min | 0.16 nm | 0.07 nm | 93% | 0.052 nM
3 | H4H6236P (antibody, human IgG4, V domains shown, H4H prefix = human IgG4 Fc) VH: QVQLVQSGAEVKKPGASVKVSCKVSGYTLTELSMHWVRQAPGKGLEWMGGFDPEDGETIYAQKFQGRVTMTEDTSTETAYMELSSLRSEDTAVYYCATDDYDILTDYPYNMDVWGQGTTVTVSS VL: not shown | 5.4e-10 M | 3.9 nM | 0.33 nm | 0.45 nm | 0.05 nm | 0.43 nm | 2.99 nM | 0.000125 s⁻¹ | 42000 M⁻¹ s⁻¹ | 92 min | 2.63 nM | 0.000245 s⁻¹ | 93000 M⁻¹ s⁻¹ | 47 min | 0.28 nm | 0.02 nm | 95% | < 0.025 nM
4 | H4H6232P (antibody, human IgG4, V domains shown, H4H prefix = human IgG4 Fc) VH: QVQLVQSGAEVKKPGASVKVSCKVSGYTLTELSMHWVRQAPGKGLEWMGGFDPEDGETIYAQKFQGRLTMTEDTSTDTAYMELSSLRSEDTAVYYCATDDYDILTSYPYNMDVWGQGTTVTVSS VL: DIQMTQSPSSLSASVGDRVTITCRASQSINNYLNWYQQKPGKAPKLLIYAASSLQSGVPSRFSGSGSGTDFTLTISSLQPEDFGTYYCQQSDSTPFTFGPGTKVDIK | 7.8e-10 M | 4.5 nM | 0.33 nm | 0.48 nm | 0.06 nm | 0.46 nm | 1.25 nM | 9.6e-05 s⁻¹ | 76800 M⁻¹ s⁻¹ | 120 min | 1.73 nM | 0.000195 s⁻¹ | 113000 M⁻¹ s⁻¹ | 59 min | 0.27 nm | 0.02 nm | 93% | < 0.025 nM
5 | H4H6243P (antibody, human IgG4, V domains shown, H4H prefix = human IgG4 Fc) VH: QVQLVQSGAEVKKPGASVKVSCKVSGYTLTELSMHWVRQAPGKGLEWMGGFDPEDGETIYAQKFQDRVTMTEDTSTDTAYMELSSLRSEDTAVYYCVTDDYEILPEYPYNMDVWGQGTTVTVSS VL: DIQMTQSPSSLSASVGDRVTITCRASQSISTYLNWYQQKPGKAPKLLIYAASSLQSGVPSRFSGSGSGTDFTLTIRSLQPEDFATYYCQQSHITPFTFGPGTKVDIK | 5.4e-10 M | 5.9 nM | 0.3 nm | 0.47 nm | 0 nm | 0.21 nm | 11.3 nM | 0.000178 s⁻¹ | 15800 M⁻¹ s⁻¹ | 65 min | 68.7 nM | 0.000484 s⁻¹ | 7050 M⁻¹ s⁻¹ | 24 min | 0.3 nm | 0.26 nm | 92% | < 0.025 nM
6 | H4H6233P (antibody, human IgG4, V domains shown, H4H prefix = human IgG4 Fc) VH: QVQLVESGGGVVQPGRSLRLSCAASGFTFSSYGMHWVRQAPGKGLEWVAVIWYDGSNYYYAASVKGRFTISRDNSENTLYLQMNRLRAEDTAVYYCAREGTGSTEDYFDYWGQGTLVTVSS VL: EIVLTQSPATLSLSPGERATLSCRASQSVSSFLAWYQQKPGQAPRLLIYDASNRATGIPVRFSGSGSGTDFTLTISSLEPEDFAVYYCQQRSNWPPYTFGQGTKLEIK | 4.1e-10 M | 23 nM | 0.19 nm | 0.47 nm | 0.08 nm | 0.41 nm | 1.88 nM | 0.000172 s⁻¹ | 91300 M⁻¹ s⁻¹ | 67 min | 3.26 nM | 0.000512 s⁻¹ | 157000 M⁻¹ s⁻¹ | 23 min | 0.11 nm | 0.06 nm | 66% | 0.69 nM
7 | H4H6238P (antibody, human IgG4, V domains shown, H4H prefix = human IgG4 Fc) VH: QVQLVESGGGLVKPGGSLRLSCAASGFTFSDYYMSWIRQAPGKGLEWVSYIGTRGSSIYYADSLKGRFTISRDNAKNSLYLQMNSLRAEDTAVYYCARDPTGTSYFDYWGQGTLVTVSS VL: not shown | 1.1e-09 M | 22 nM | 0.13 nm | 0.41 nm | 0.02 nm | 0.33 nm | 9.32 nM | 0.000225 s⁻¹ | 24100 M⁻¹ s⁻¹ | 51 min | 16.4 nM | 0.000931 s⁻¹ | 56900 M⁻¹ s⁻¹ | 12 min | 0.11 nm | 0.08 nm | 64% | 0.97 nM
8 | H4H6240P (antibody, human IgG4, V domains shown, H4H prefix = human IgG4 Fc) VH: QVQLVESGGGVVQPGRSLRLSCAASGFTFSSYGMHWVRQAPGKGLEWVAVIWYDGSNKYYADSVKGRFIISRDNSKNMMYLQMNSLRAEDTAVYYCAREDNWNYAFDYWGQGTLVTVSS VL: EIVMTQSPATLSVSPGERATLSCRASQSISSNLAWYQQKPGQAPRLLIYDSSTRATGIPARFSGSGSGTQFTLTISSLQSEDFALYYCQQYSNWPPFTFGPGTKVDIK | 8.1e-10 M | 7.8 nM | 0.23 nm | 0.53 nm | 0.05 nm | 0.37 nm | 4 nM | 0.000319 s⁻¹ | 79700 M⁻¹ s⁻¹ | 36 min | 9.75 nM | 0.00118 s⁻¹ | 121000 M⁻¹ s⁻¹ | 10 min | 0.18 nm | 0.16 nm | 60% | 0.65 nM
